The results in this text go back to paper PMC7990499, “eIF2B conformation and assembly state regulate the integrated stress response” (eLife, 2021).

In assay [1] the target is eIF2B(αβδγε)2 decamer (human) (UniProt Q14232).
The target is the same in assay [2]. Briefly: fluorescence polarisation; displacement of FAM-ISRIB (2.5 nM) from 100 nM eIF2B(αβδγε)2 by titrated eIF2, eIF2-P, eIF2α or eIF2α-P; 30 min at 22°C; 20 mM HEPES-KOH pH 7.5, 100 mM KCl, 5 mM MgCl2, 1 mM TCEP; also timecourses with PKR or λ phosphatase at 5.6 μM eIF2α/eIF2α-P. (Fluorescence polarisation rises when a labelled molecule tumbles more slowly, as on binding a larger partner.)

In general, IC50 refers to the concentration needed to halve the response being measured. High values mean weaker potency, low ones greater potency.

Consider “human phosphorylated eIF2α (eIF2α-P) (from UniProt P05198 1-315) (natural protein)”, for which the t1/2 of BODIPY-FL-GDP exchange on eIF2 by 10 nM eIF2B(αβδγε)2 (GEF activity) at 0, 0.2, 1 and 2 μM eIF2α-P (control 2.4 min) in assay [1] stood at 6.7 min. This substance registered an IC50 in assay [2] of 4000 nM.
“phosphorylated heterotrimeric human eIF2 (eIF2-P) (from UniProt P05198 1-315; P20042 1-333; P41091 1-472) (complex)” registered a t1/2 of BODIPY-FL-GDP exchange on eIF2 by 10 nM eIF2B(αβδγε)2 (GEF activity) at 0, 50, 100 and 250 nM eIF2-P (control 1.6 min) in assay [1] of 7.2 min. In addition, the IC50 in assay [2] is 210 nM.
